Source: paper PMC11200239

Target: MerA variant G415I (P. aeruginosa) (UniProt P00392)
Assay: SEC-MALS

MerA variant G415I (from UniProt P00392 96-561) (enzyme)
stoichiometry N: 2
